By IC50 is commonly meant the concentration that gives 50% inhibition.

Where “and” joins values, the source holds several entries; their conditions need not be identical. Identical values can stand only once.

This assay deals with receptor binding domain (RBD) portion of the SARS-CoV-2 Spike protein (amino acids Arg319-Phe541) ex (SARS-CoV-2).

B1: mAb10969 (antibody, V domains shown)
VH: QVQLVESGGGVVQPGRSLRLSCAASGFTFSSYAMHWVRQAPGKGLEWVAVISYDGSNKYYADSVKGRFTISRDNSKNTLYLQMNSLRAEDTAVYYCARDGRTITMVRGVIDDAFDIWGQGTMVTVSS
VL: not shown
B1 displayed a half-inhibitory concentration (IC50) of 0.215 nM.

B2: mAb10937 (antibody, V domains shown)
VH: QITLKESGPTLVKPTQTLTLTCTFSGFSLSTNVVGVGWIRQPPGKALEWLALIYWNDDKRYSPSLKSRLTITKDTSKNQVVLTMTNMDPVDTATYYCAHGPTGDYFDYWGQGTLVTVSS
VL: not shown
Molecule B2 returned an IC50 of 0.0649 nM.

B3: mAb10935 (antibody, V domains shown)
VH: EVQLVESGGGLVQPGGSLRLSCAASGFTVSSNYMSWVRQAPGKGLEWVSLIYSGGSTYYADSVKGRFTISRHNSKNTLYLQMNSLRSEDTAVYYCARVPLGDYYYGMDVWGQGTTVTVSS
VL: DIQMTQSPSSLSASVGDRVTITCQASQDINKYLNWYQQKPGKAPKLLIYDASNLETGVPSRFSGSGSGTDFTFTISSLQPEDIATYYCQQSDNLPLTFGGGTKVEIKR
In the case of B3, the IC50 was 0.102 nM and 0.0694 nM.

B4: mAb10954 (antibody, V domains shown)
VH: EVQLVESGGGLVQPGGSLRLSCAASGITVSSNYMSWVRQAPGKGLEWVSLIYSGGSTYYADSVKGRFTISRDNSKNTLYLQMNSLRVEDTAVYYCARDHGMAAAGYNYWGQGTLVTVSS
VL: DIQMTQSPSSLSASVGDRVTITCQASQDINKYLNWYQQKPGKAPKLLIYDASNLETGVPSRFSGSGSGTDFTFTINSLQPEDFATYFCQQYDNLPPAFGQGTKVEIKR
Regarding B4, the concentration for half-maximal inhibition (IC50) was found to be 0.0711 nM.

B5: mAb10955 (antibody, V domains shown)
VH: EVQLVESGGGLVQPGGSLRVSCAASGFTVSRNYMSWVRQAPGKGLEWVSVIYSGGSTFYADSVKGRFTISRDNSKNTLYLQMNSLRAEDTAIYYCARYIPRFDPWGQGTLVTVSS
VL: DIQMTQSPSSLSASVGDRVTITCQASQDISNYLNWFQQKPGRAPKLLIYDASNLETGVPSRFSGSGSGTDFTFTISSLQPEDIATYYCQQYDNLPITFGQGTRLEIKR
Turning to B5, the half-maximal inhibitory concentration (IC50) is 0.141 nM.

B6: mAb10938 (antibody, V domains shown)
VH: EVQLVESGGGLVQPGGSLRLSCAVSGFTVSSNYMSWVRQAPGKGLEWVSLIYSGGSTFYADSVKGRFTISRHNSKNTLYLQMNSLRAEDTAVYYCAREGGYSYDYNYWGQGTLVTVSS
VL: DIQMTQSPSSLSASVGDRVTITCQASQDIRNYLNWYQQKPGKAPKLLIYDASNLETGVPSRFSGIGSGTDFTFTISSLQPEDIATYYCQQYDNLPITFGQGTRLEIKR
On to B6, for which the IC50 was 0.275 nM.

B7: mAb10967 (antibody, V domains shown)
VH: EVQLVESGGGLVQPGGSLRLSCAASGFTVSSNYMSWVRQAPGKGLEWVSVIYPGGSTFYADSVKGRFTISRDNSKNTLYLQMNSLRAEDTAVYYCARDQRDFAWGQGTLVTVSS
VL: DIQMTQSPSSLSASVGDRVTITCQASQDISNYLNWYQQKPGKAPKLLIYDASNLETGVPSRFSGSGSGTDFTFTISGLQPEDIATYYCQQYDNLPPTFGQGTRLEIKR
For the molecule B7, the IC50 came to 0.28 nM.

B8: mAb10965 (antibody, V domains shown)
VH: EVQLVESGGGLIQPGGSLRLSCAASVFTVSYNYMSWVRQAPGKGLEWVSVIYSGGSTYYADSVKGRFTISRDNSKNTLYLQMNSLRAEDTAVYYCARALPGWGGSFEYFDYWGQGTLVTVSS
VL: not shown
As to B8, the IC50 was determined as 0.213 nM.

B9: mAb10984 (antibody, V domains shown)
VH: EVQLVESGGGLVQPGGSLRLSCAASGLTVNRNYMSWVRQAPGKGLEWVSLIYSGGSTYYADSVKGRFTISRDNSKNTLYLQMNSLRLEDTAVYYCARGELGIPYGMDVWGQGTTVTVSS
VL: QSVLTQPPSVSAAPGQKVTISCSGSSSNIGNNYVSWYQQLPGTAPKLLIYDNNKRPSGIPDRFSGSKSGTSATLGITGLQTGDEADYYCGTWDSSLSAGVFGGGTKLTVLG
B9 returned an IC50 of 0.0775 nM.

B10: mAb10964 (antibody, V domains shown)
VH: QVQLQESGPGLVKPSETLSLTCTVSGGSINNYYWIWIRQPPGKGLEWIGYIYHSGSTNYNPSLKSRVTISVDTSKNQFSLKVSSVTAADTAVYYCANMVRGVYEDDYWGQGTLVTVSS
VL: DIQMTQSPSSLSASVGDRVTITCRASQSISNYLNWYQQKPGKAPKLLIFAASSLRSGVPSRFSGSGSGTDFTLTISSLHPEDFATYYCQQNYNTPLTFGPGTKVDIKR
As to B10, the half-inhibitory concentration (IC50) is 0.0683 nM and 0.0625 nM.

B11: mAb10966 (antibody, V domains shown)
VH: EVQLVESGGGLVQPGGSLRLSCAASGLTVSSNYMSWVRQAPGKGLEWVSVIYSGGSTFYADSVKGRFTISRDNSKNTLYLQMNSLRPEDTAVYYCAREGRIAATGYGMDVWGQGTTVTVSS
VL: not shown
Regarding B11, the IC50 was 0.16 nM. That is a sub-nanomolar value.

B12: mAb10957 (antibody, V domains shown)
VH: EVQLVESGGGLVQPGGSLRLSCAASGVTVSSNYMSWVRQAPGKGLEWVSVIYSGGSTFYADSVKGRFTISRDNSKNTLFLQMNSLRIEDTAVYYCARDLGPYGMDVWGQGTTVTVSS
VL: DIQLTQSPSFLSASVGDRVTITCRASQGISSYLAWYQQKPGKAPKLLIYAASTLQSGVPSRFSGSGSGTQFILTISSLQPEDFATYYCQQLNSYPGFTFGPGTKVDIKR
B12: the IC50 stood at 0.169 nM.

B13: mAb10971 (antibody, V domains shown)
VH: EVQLVESGGGLIQPGGSLRLSCAASGVTVSSNYMSWVRQAPGKGLEWVSVIYSGGSTFYSDSVKGRFSISRDNSKNTLYLQMNSLRAEDTAVYYCARDLYYYGMDVWGQGTTVTVSS
VL: DIQLTQSPSFLSASVGDRVTITCRASQGISTYLAWYQQKPGKAPKLLIYAASTLQSGVPSRFSGSGSGTEFTLTISSLQPEDFATYYCQQLDSYPGLTFGGGTKVEIKR
In turn, B13 yielded an IC50 of 0.149 nM.

B14: mAb10939 (antibody, V domains shown)
VH: EVQLVESGGGLVQPGGSLRLSCAASGLTVSSNYMNWVRQVPGKGLEWVSVIYSGGSKFYVDSVKGRFTISRHNSKNTLYLQMNSLRPEDTAVYYCTRDAQYYGMDVWGQGTTVTVSS
VL: DIQMTQSPSSLSASVGDRVTITCRASQSISTYLHWYQQKPGEAPKLLIYAASSLQSGVPSRFSGSGSGTDFTLTISSLQPEDFATYYCQQSYSTPPEIFGQGTKLEIKR
As to B14, the half-maximal inhibitory concentration (IC50) is 0.175 nM and 0.263 nM.

B15: mAb10956 (antibody, V domains shown)
VH: EVQLVESGGGLVQPGGSLRLSCAASGLTVSSNYMSWVRQAPGKGLEWVSVIYSGGSTFYADSVKGRFTISRDNSKNTLYLQMNSLRAEDTAVYYCARDLIKYGMDVWGQGTTVTVSS
VL: not shown
B15 returned a half-inhibitory concentration (IC50) of 0.185 nM.

B16: mAb10936 (antibody, V domains shown)
VH: QVQLVESGGGVVQPGRSLRLSCAASGFTFRNYGMHWVRQAPGKGLEWVSVIWYDGSNRYYADSVKGRFTISRDTSKNTLYLQMNSLRAEDTAVYYCARDPPITGTTGGDAFDIWGQGTMVTVSS
VL: not shown
Regarding B16, the IC50 is 0.0875 nM and 0.071 nM.

B17: mAb10982 (antibody, V domains shown)
VH: EVQLVESGGGLVQPGGSLRLSCAASGLTVSSNYMSWVRQAPGKGLEWVSVIYSGGTTYYADSVKGRFTISRHNSKNTLSLQMNSLRAEDTAVYYCARGEGANYYGMDVWGQGTTVTVSS
VL: QSVLTQPPSVSGAPGQRVTISCTGSSSNIGTGYDVHWYQQLPGTAPKLLIYGNSNRPSGVPDRFSGSKSGTSASLAITGLQAEDEADYYCQSYDSSLSGYVVFGGGTKLTVLG
Molecule B17 showed an IC50 of 0.116 nM.

For the origin of these results see patent publication US20240043504A1 (published 2024).
